# Experimental data from US20040265797A1 (CHIRON, published 2004).
# Square brackets hold non-standard residues; d marks the D form. Ends that are not written are not given here.
# B1: Analog 94 (peptide)
# peptide: AEFFKLGPNGYVYL[dH]SA-NH2
# modifications: N-terminus assumed
# SMILES: CC(C)C[C@H](NC(=O)[C@H](CCCCN)NC(=O)[C@H](Cc1ccccc1)NC(=O)[C@H](Cc1ccccc1)NC(=O)[C@H](CCC(=O)O)NC(=O)[C@H](C)N)C(=O)NCC(=O)N1CCC[C@H]1C(=O)N[C@@H](CC(N)=O)C(=O)NCC(=O)N[C@@H](Cc1ccc(O)cc1)C(=O)N[C@H](C(=O)N[C@@H](Cc1ccc(O)cc1)C(=O)N[C@@H](CC(C)C)C(=O)N[C@H](Cc1c[nH]cn1)C(=O)N[C@@H](CO)C(=O)N[C@@H](C)C(N)=O)C(C)C
# B2: Analog 88 (peptide)
# peptide: AEFFKLG[dP]NGYVYLHSA-NH2
# modifications: N-terminus assumed
# SMILES: CC(C)C[C@H](NC(=O)[C@H](CCCCN)NC(=O)[C@H](Cc1ccccc1)NC(=O)[C@H](Cc1ccccc1)NC(=O)[C@H](CCC(=O)O)NC(=O)[C@H](C)N)C(=O)NCC(=O)N1CCC[C@@H]1C(=O)N[C@@H](CC(N)=O)C(=O)NCC(=O)N[C@@H](Cc1ccc(O)cc1)C(=O)N[C@H](C(=O)N[C@@H](Cc1ccc(O)cc1)C(=O)N[C@@H](CC(C)C)C(=O)N[C@@H](Cc1c[nH]cn1)C(=O)N[C@@H](CO)C(=O)N[C@@H](C)C(N)=O)C(C)C
# B3: Analog 89 (peptide)
# peptide: AEFFKLGP[dN]GYVYLHSA-NH2
# modifications: N-terminus assumed
# SMILES: CC(C)C[C@H](NC(=O)[C@H](CCCCN)NC(=O)[C@H](Cc1ccccc1)NC(=O)[C@H](Cc1ccccc1)NC(=O)[C@H](CCC(=O)O)NC(=O)[C@H](C)N)C(=O)NCC(=O)N1CCC[C@H]1C(=O)N[C@H](CC(N)=O)C(=O)NCC(=O)N[C@@H](Cc1ccc(O)cc1)C(=O)N[C@H](C(=O)N[C@@H](Cc1ccc(O)cc1)C(=O)N[C@@H](CC(C)C)C(=O)N[C@@H](Cc1c[nH]cn1)C(=O)N[C@@H](CO)C(=O)N[C@@H](C)C(N)=O)C(C)C
# B4: Analog 55 (peptide)
# peptide: AESTYHHLS[dL]GYMYTLN-NH2
# modifications: N-terminus assumed
# SMILES: CSCC[C@H](NC(=O)[C@H](Cc1ccc(O)cc1)NC(=O)CNC(=O)[C@@H](CC(C)C)NC(=O)[C@H](CO)NC(=O)[C@H](CC(C)C)NC(=O)[C@H](Cc1c[nH]cn1)NC(=O)[C@H](Cc1c[nH]cn1)NC(=O)[C@H](Cc1ccc(O)cc1)NC(=O)[C@@H](NC(=O)[C@H](CO)NC(=O)[C@H](CCC(=O)O)NC(=O)[C@H](C)N)[C@@H](C)O)C(=O)N[C@@H](Cc1ccc(O)cc1)C(=O)N[C@H](C(=O)N[C@@H](CC(C)C)C(=O)N[C@@H](CC(N)=O)C(N)=O)[C@@H](C)O
# B5: Analog 96 (peptide)
# peptide: AEFFKLGPNGYVYLHS[dA]-NH2
# modifications: N-terminus assumed
# SMILES: CC(C)C[C@H](NC(=O)[C@H](CCCCN)NC(=O)[C@H](Cc1ccccc1)NC(=O)[C@H](Cc1ccccc1)NC(=O)[C@H](CCC(=O)O)NC(=O)[C@H](C)N)C(=O)NCC(=O)N1CCC[C@H]1C(=O)N[C@@H](CC(N)=O)C(=O)NCC(=O)N[C@@H](Cc1ccc(O)cc1)C(=O)N[C@H](C(=O)N[C@@H](Cc1ccc(O)cc1)C(=O)N[C@@H](CC(C)C)C(=O)N[C@@H](Cc1c[nH]cn1)C(=O)N[C@@H](CO)C(=O)N[C@H](C)C(N)=O)C(C)C
# B6: Peptide 9 (synthetic peptide of clone 9) (peptide)
# peptide: AEFFKLGPNGYVYLHSA-NH2
# notes: also called analogs 62-64
# B7: Analog 74 (peptide 9, Tyr at position 11 to alanine) (peptide)
# peptide: AEFFKLGPNGAVYLHSA-NH2
# B8: Analog 76 (peptide 9, Tyr at position 13 to alanine) (peptide)
# peptide: AEFFKLGPNGYVALHSA-NH2
# B9: Analog 69 (peptide 9, Leu at position 6 to alanine) (peptide)
# peptide: AEFFKAGPNGYVYLHSA-NH2
# B10: Analog 75 (peptide 9, Val at position 12 to alanine) (peptide)
# peptide: AEFFKLGPNGYAYLHSA-NH2
# B11: Analog 83 (peptide)
# peptide: A[dE]FFKLGPNGYVYLHSA-NH2
# modifications: N-terminus assumed
# SMILES: CC(C)C[C@H](NC(=O)[C@H](CCCCN)NC(=O)[C@H](Cc1ccccc1)NC(=O)[C@H](Cc1ccccc1)NC(=O)[C@@H](CCC(=O)O)NC(=O)[C@H](C)N)C(=O)NCC(=O)N1CCC[C@H]1C(=O)N[C@@H](CC(N)=O)C(=O)NCC(=O)N[C@@H](Cc1ccc(O)cc1)C(=O)N[C@H](C(=O)N[C@@H](Cc1ccc(O)cc1)C(=O)N[C@@H](CC(C)C)C(=O)N[C@@H](Cc1c[nH]cn1)C(=O)N[C@@H](CO)C(=O)N[C@@H](C)C(N)=O)C(C)C
# B12: Analog 82 (peptide)
# peptide: [dA]EFFKLGPNGYVYLHSA-NH2
# modifications: N-terminus assumed
# SMILES: CC(C)C[C@H](NC(=O)[C@H](CCCCN)NC(=O)[C@H](Cc1ccccc1)NC(=O)[C@H](Cc1ccccc1)NC(=O)[C@H](CCC(=O)O)NC(=O)[C@@H](C)N)C(=O)NCC(=O)N1CCC[C@H]1C(=O)N[C@@H](CC(N)=O)C(=O)NCC(=O)N[C@@H](Cc1ccc(O)cc1)C(=O)N[C@H](C(=O)N[C@@H](Cc1ccc(O)cc1)C(=O)N[C@@H](CC(C)C)C(=O)N[C@@H](Cc1c[nH]cn1)C(=O)N[C@@H](CO)C(=O)N[C@@H](C)C(N)=O)C(C)C
# B13: Analog 95 (peptide)
# peptide: AEFFKLGPNGYVYLH[dS]A-NH2
# modifications: N-terminus assumed
# SMILES: CC(C)C[C@H](NC(=O)[C@H](CCCCN)NC(=O)[C@H](Cc1ccccc1)NC(=O)[C@H](Cc1ccccc1)NC(=O)[C@H](CCC(=O)O)NC(=O)[C@H](C)N)C(=O)NCC(=O)N1CCC[C@H]1C(=O)N[C@@H](CC(N)=O)C(=O)NCC(=O)N[C@@H](Cc1ccc(O)cc1)C(=O)N[C@H](C(=O)N[C@@H](Cc1ccc(O)cc1)C(=O)N[C@@H](CC(C)C)C(=O)N[C@@H](Cc1c[nH]cn1)C(=O)N[C@H](CO)C(=O)N[C@@H](C)C(N)=O)C(C)C
# Experiments:
# [1] = molecular target: T1, Soluble recombinant human urokinase receptor (suPAR) (human, UniProt Q03405 23-299, limits assumed, biotinylated in the plate assays (sites not given)); test: competition with phage displaying peptide 9 for soluble uPAR
# T1 construct: Only called a soluble truncated form of the urokinase receptor; also called soluble uPAR; biotinylated suPAR
# Description: (§1) The final anti-M13 conjugate dilution was 1:4000.
# (§2) These concentrations were calculated based on the synthesis reactions.
# [2] = molecular target: T1, Soluble recombinant human urokinase …; test: competition with phage displaying peptide 9 for soluble uPAR; * quantity tested could have been lower
# Description: as §1, §2
# [3] = molecular target: T1, Soluble recombinant human urokinase …; test: competition with phage displaying peptide 25 for soluble uPAR
# Description: as §1, §2
# [4] = molecular target: T1, Soluble recombinant human urokinase …; test: alanine scan of peptide 9; competition with phage displaying peptide 9 for soluble uPAR
# Description: Streptavidin, 100 μl (0.1 mg/ml) in 50 mM Na₂CO₃, pH 9.6, was added to MaxiSorp wells (Nunc), incubated overnight at 4 C, and then washed with PBS/BSA. […] Competitive peptide inhibitors were added to the wells immediately prior to addition of the bacteriophage. The wells were incubated for one hour at room temperature, then washed and bound bacteriophage eluted with 6M urea in 0.1N HCl, pH 2.5. After 15 minutes, the urea eluate was brought to neutral pH by addition of 2M Tris base and the bacteriophage titers of input stocks and elutions measured by plaque formation assay. Results were expressed as the percent of input bacteriophage which bind to the wells. Alternatively, the amount of bacteriophage was determined in an ELISA where phage were preincubated with HRP-conjugated anti-M13 antibody for 30 minutes at room temperature before dispensing into wells prepared as above and incubated for one hour at room temperature. The final anti-M13 conjugate dilution was 1:4000. After washing, TMB substrate (100 μl/well) was added and color development was stopped with 0.8N H₂SO₄ (100 μl/well). The absorbance at 450 nm was then measured in a 96 well plate reader.
# Approximately 10⁸ plaque forming units of the phage were used in the assay.
# T1 sequence (Q03405 23-299 limits assumed): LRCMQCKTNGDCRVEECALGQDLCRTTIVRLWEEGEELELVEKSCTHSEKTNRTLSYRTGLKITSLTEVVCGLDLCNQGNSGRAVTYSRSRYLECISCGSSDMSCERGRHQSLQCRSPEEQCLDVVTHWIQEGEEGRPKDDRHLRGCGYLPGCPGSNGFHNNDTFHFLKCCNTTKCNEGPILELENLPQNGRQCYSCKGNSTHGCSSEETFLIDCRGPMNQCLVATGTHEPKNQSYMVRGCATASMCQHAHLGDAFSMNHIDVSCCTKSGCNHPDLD
Binder,% Inhibition at 2.5 uM [1] [%],% Inhibition at 5 uM [1] [%],binding result [4],also measured
B1,36,41,,
B2,,76,,% Inhibition at 2.5 uM [2]: 80%
B3,15,13,,
B4,,,,% Inhibition at 2.5 uM [3]: 56%; % Inhibition at 5 uM [3]: 80%
B5,,40,,% Inhibition at 2.5 uM [2]: 38%
B6,59,71,,
B7,,,no binding,
B8,,,no binding,
B9,,,no binding,
B10,,,no binding,
B11,44,59,,
B12,,41,,% Inhibition at 2.5 uM [2]: 24%
B13,47,59,,
